The values below come from article PMC10619424.

As a reminder, the stoichiometry N is the number of molecules, sites or subunits per partner or assembly.

The target of this assay is haloalkane dehalogenase DmmarA from Mycobacterium marinum M (Mycobacterium marinum M). As to the kind of experiment: SAXS; SEC-purified DmmarA at 2, 4.5 and 8.7 mg/ml in 50 mM sodium acetate, 10 mM Tris pH 8.5; scattering curves fitted to the crystallographic monomer and dimer (CRYSOL), ab initio model (DAMMIN).

In turn, “haloalkane dehalogenase DmmarA from Mycobacterium marinum M (enzyme)” displayed a stoichiometry N of 2.
